# Results reported in a protein production outcome set (Wang et al. 2014).
# Test: label from the status in PepcDB records
# 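Also: failed if final PepcDB status was selected cloned or expressed and not failed if soluble or beyond.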
row,Sequence,protein production
1,CLEDILSATKMVINLCLPQFRPRIHCNKISADGYEVENLISEDLTKRSHGFRTEYFIKPPVYVTVSFPFNVEICRINIDLTAGGGQNVTGLEMYTSASSSRVSWNTPQCRTLGPAEPSVPDKEAFTLVGKVLLKNQSQVVFSHRGFKARPPFGAMEATLPSPAVVAQELWNKGALSLSHVAHLRICITHVTGGGIPCIKRLEVWGQPAKTCSQEVIDSILLVTSENLPQDVALQAPALPMESDCDPGDQPESQQAPSSLQKLAEIIQDVPEEFLDPITLEIMPCPMLLPSGKVIDQSTLEKCNRSEATWGRVPSDPFTGVAFTPHSQPLPHPSLKARIDHFLLQHSIPGCHLLGRAQTALAVIPSSIVLPSQKRKIEQAEHVPDSNFGVNASCFSATSPLVLPTTSEHTAKKMKATNEPSLTHMDCSTGPLSHEQKLSQSLEIALASTLGSMPSFTARLTRGQLQHLGTRGSNTSWRPGTGSEQPGSILGPECASCKRVFSPYFKKEPVYQLPCGHLLCRPCLGEKQRSLPMTCTACQRPVASQDVLRVHF,not failed
2,MMSNLCKYGPPPDSDSDSSYDGFYFSDKVKRSKPAPYVDPEQKLYDAVVAGDLKTMQEEMRKLVLQVDQPVKGGLNLLMLACREGHYKIVEWLLERAGANVNRQLDSLMPLMMACNTTHKDPCLAERIVGLLLRHGAVINVSEKYGMTPFMFACQNGFAGVVRLLIKDASFDAVDNQGCTAIFHAIEKNHVEVVKLLVEAGANATIANNKGYTPTQVAECHGYYDLLEILPRPASTYLVPTHFLGYNTLRDHIPRIFLKSDCPEYFQELNGILEAINIGNMVQYFAIARISLADFLVMDEQSLREIGIEYPIFRHKILTGILDFHLHHWSNSSIARVKKDEMNNFYEILLITASHLQHLVIIQASLRFILKNQEHNKMGQPSEMQVAAMKSNLQGYRDVLNQITKTVKYLGSFSPSQNPLFIDFNEILAERKRKKVRSYFKYTTIILGISVFICLKCKWFS,failed
3,MLTANIQAASSTRRYSDYVTRSWSHALPIGRKRINLDAIAQLAGERDIVGLQESDPGSLRSGFTNQTCYLAQRAGFHYWSHQPNRRMAGVASSANGLLSRLKPRQIHNHALPGRIPGRGVLLAKFGNGGFDSLVVAVVHLSLGVRSRMAQLVFIADLLAEYPNTILMGDFNCRADCSEMQVLYRRTRLQPPGVVIPTFPSWRPERAIDHILVSEGFYICKTEAVPAAFSDHLAVSMDLVIPQRILRLEHHHHHH,failed
4,MMFLHGSRQAVIAALVGLVITVTAFSYLRYQENQVVHDALEAETYNLQRDIRQSLVSHLFVAELLAREWERSDLSIEERWKENADIVTLYYQNVQGITWLNDELDIELIYPQNEQPELLGTPFAKTPLLEKLKASEGNRHAMMGPAGNLGRISSDIAIFVRVEQQDQTHGFLGFVISLQSLFNNVVRSNISEGFQLSVRSDNDILYQFAGDTSLREEWSHFHSLQLVGNSWELSVWPTAGHLEQLRGGISLAALIAGLLVTSMLTFVLYILGQSRFKAQQLADSNIELYSEIDERERIEKQMAYLAEHDSLTGLVNRNALKRILGEWLETESPHKKAALLFIDLDRFKEVNDALGHTVGDELLRRVARRITKLAPKGSVLARAGGDEFLLAIAKPDSRESIIKLSEQMLQALDTHFFVDVYELFISASIGVTFADDADFNAEYFIRNADTALYQAKEHGRNTYKVYDKAIHRDLTKKLELVKRLRHAVSKQQLTVYYQPKVELGSRRISGLEALVRWVDDDGSIIPPDEFIPLAEDTGLIIPISEYVMEEAFLQLKQWHELGFDELSIAINISGKQLHLADLVDDIMERVNEAQIPPNKVELELTEQVFIENIQSHTRFMHSVREQGMSLAIDDFGVGYSSLSYLKNFPVTSLKIDRSFVRDLPHNEDDATITQTIISLARNLNLQLVAEGIETEEQVEFLLQRECSTGQGFLFSKPVPARQITELLQQYKGLIPIQIA,failed
5,MAKRTPSIDTKNLTAVQLMELDACVRCGECVKWCPTYAASGGKPGLAPRDKILRWRQYMNKSYGLKAKLFGPQEVSPSELEEFKDDVHGCTTCGVCATVCEAGINTVEIWEAIRTNLVKKGIGPYGKQSAFPKLVGQYHNPYMKDQKDRLAWVPPDVKIEDKADIVYFTGCTAGYNQLALAFATSRVLNKLGIKFAMLGEEEWCCGSALIRTGQVHVDDVARELARHNVEALQKKGAKKVLFACAGCFRAAKIDWPRLLGKELPFEVIHITQFLADLIQADKIKWEKPINKTITYHDPCHLGRHVGVFNAPRYVLSHIPGVKFVEMDRSKEFQRCCGAGGGVKAGMPDLAVAMGESRVKDALETNADILSSACPFCKRNLSDGRDALKSDIVVEDIIELVAEALGLSTS,failed
6,MEFLSLVIVVVAAFMTPIIVHRFNINFLPVVVAEILMGIVIGHSFLNLVERDAFLNILSTLGFIFLMFLSGLEIDFNAFKKDSRPRQGEDKHEKDVPGHLKLALTVFAFIMMISVVLAFAFKWLGLVNDVLLMVIIISTISLGVVVPTLKEMNIMRTTIGQFILLVAVLADLFTMILLTVYGAIYGEGGSTIWLTGILVVFTVVFYVIGVLFKRMSFLQKLMDGTTQIGIRAVFALIILLVALAEGVGAEYILGAFLAGVVVSLLKPNEEMVEKLDSFGYGFFIPIFFIMVGVDLDIPSLIKEPSLLLIIPVLIFSFIISKLIPVFYIRRWFDTKTTIASAFLLTSTLSLVIAAAKIAEKLKAISPETSGILILSAVITCVFVPVIFKKMFPIPNEVGRRIEVSMIGKNQLTIPIAQNLTSQLYDISLYYRKDLSDSRKLSDDITMIEIADYEEDLLERLGLFERDIVVCSTNDDHINKSVALMAKKHGVKRVICRLESTNEDPTLKHQGIEVFSNYLSNKILLKSLIETPNMLNLLSNVETSLYEIQMLNYQYENIQLRNFPFGGDIIFVRIIRDNDSIVPHGDTQLRYKDRLIVTGTKEYVDELKQELEFYY,failed
7,MLSYPRYLAVFLLIIGQSCLAFAEEQPQVGQLFKLFDSGESMPRATIEQNIALLEKLISSDDIERIEKLNQIKCWNQASDTEEEIAKALNYAEQALSQIPSTASTHFITDINLCRAWFLQLTGDINGAMEGYTKSVQSAYEHEDIKLIADARSLRGALYSYTGDFSEALDDLVTAQGLYESLNLTGWANINLTDIATSFRRYGDPESAIKYYKKLKELYLKNGNKEQVANVMSEIGIALDEMGKHEQAIEHFRFSYQYFKDQKLNIVAAINATNIAYSLIQLNRLDEAENYLNEAAPDISENEPAAYSFMKLFMGKIRNQQGRYQEALDELSAAEHAFRVMHNDRGLIQLLQLKSDIYAAMEDLPQAYHILQEFIALTKKVDDSSIAHQTTELKVKFDTSWIESENKRLIDNQKLKEQELTLLEKNKSLQLIILLLTGCILATVSLFAYKQVHRNRQLQTIALTDYLTQLPNRRHIYAQAEQYFQLALKQQIPFSIIIFDADHFKKINDNFGHEIGDQALLTIAEASKTLTTDRNLVGRIGGEEFLILLPNTDADRAWKLAHELQTLITRFGAINLPVELKLTVSAGVATLPIQSELQDQNFARLLKRADNALYEAKNAGRNCVKAAEITG,failed
8,TLTVNGPPIISSTQTQHALHGEKGQIKCFIRSTPPPDRIAWSWKENVLESGTSGRYTVETISTEEGVISTLTISNIVRADFQTIYNCTAWNSFGSDTEIIRLKEQGSEM,not failed
9,MKFFFLLQIALILLSNSSLLFGQSPPKEKEDSLLLYKEGKFKEAILNTLEEIRLNPSNLDARTILIWSLIAIGEYKRAEKEAIIGLGIKKHDIRIIQALGEAYFFQKNYDNALKYFQEYISLDSKGARIIKVYNLIADSFYELKRYNEADFAYEHALRFSPNNQNLLIKLARSRINAKNKILAEEALIKILTISPNNLEAKNLLEELKKSNNKP,failed
10,MTAGWCCRTVRAALFAAVCVLLAALGHVMMSGTAVPWWAMTVAALVTGGTGWCLAGRERGLALIVSVVVVAQGALHSAFSVAQSAAHSAGSVGADSMPKGSMGSDMSSVHMDSVHMDSMDMGNMGAGHLAHLGHDMGGGSSFGMLAAHSAAALLCGLWLAYGERAAFRILRALAGRLAAPLRLLLALPTPAHRPRIRVRRGSSDRTPRRLLLVHAITSRGPPVGTAVI,failed
11,MAAKFHLKKAKDGQFHFNLHAANGEIILTSELYKAKDSALGGIESVRKNSQRDGAFEVKPANNGKFHFVLKATNGQVVGQSQLYASQANAEAGVQSVKRATPEAGLSDESLEHHHHHH,not failed
12,AKGSMIQFDAPDGKKANAYMVKASSPSTKYVFLIHEWWGLNDYIKKDADKLYADLGGNVNIMALDLYDGKVTANRDSAAAYMGAASATRIGSILNGAFMFAGDKAEIISMGWCFGGGWALQSSILAGNKSKGTIMYYGMTEKDPVKLAGLKGDVLGIFGSKDKWINPEMVAAFDKDLTAAGKKHTIKSFDADHAFANPSNPQFNKAYTEEAWGMSVAFIKKAFG,failed
